In US20120164659A1 (NEXIGEN, published 2012):

B1: Interferone-induced guanylate binding protein-2 (GBP2), prey fusion with myristoylation signal from the human hepatocyte cDNA library (other)
chain: MAPEINLPGPMSLIDNTKGQLVVNPEALKILSAITQPVVVVAIVGLYRTGKSYLMNKLAGKKNGFSLGSTVKSHTKGIWMWCVPHPKKPEHTLVLLDTEGLGDIEKGDNENDSWIFALAILLSSTFVYNSMGTINQQAMDQLHYVTELTDRIKANSSPGNNSVDDSADFVSFFPAFVWTLRDFTLELEVDGEPITADDYLELSLKLRKGTDKKSKSFNDPRLCIRKFFPKRKCFVFDWPAPKKYLAHLEQLKEEELNPDFIEQVAEFCSYILSHSNVKTLSGGIPVNGPRLESLVLTYVNAISSGDLPCMENAVLALAQIENSAAVEKAIAHYEQQMGQKVQLPTETLQELLDLHRDSEREAIEVFMKNSFKDVDQMFQRKLGAQLEARRDDFCKQNSKASSDCCMALLQDIFGPLEEDVKQGTFSKPGGYRLFTQKLQELKNKYYQVPRKGIQAKEVLKKYLESKEDVADALLQTDQSLSEKEKAIEVERIKAESAEAAKKMLEEIQKKNEEMMEQKEKSYQEHVKQLTEKMERDRAQLMAEQEKTLALKLQEQERLLKEGFENESKRLQKDIWDIQMRSKSLEPICNIL
modifications: myristoylation signal at the N-terminus (membrane localisation)
notes: also called NM-004120; not shown: myristoylation signal of the pmyr library vector
B2: membrane-associated Ring-finger 7 (MARCH7), prey fusion with myristoylation signal from the human hepatocyte cDNA library (other)
chain: MESKPSRIPRRISVQPSSSLSARMMSGSRGSSLNDTYHSRDSSFRLDSEYQSTSASASASPFQSAWYSESEITQGARSRSQNQQRDHDSKRPKLSCTNCTTSAGRNVGNGLNTLSDSSWRHSQVPRSSSMVLGSFGTDLMRERRDLERRTDSSISNLMDYSHRSGDFTTSSYVQDRVPSYSQGARPKENSMSTLQLNTSSTNHQLPSEHQTILSSRDSRNSLRSNFSSRESESSRSNTQPGFSYSSSRDEAPIISNSERVVSSQRPFQESSDNEGRRTTRRLLSRIASSMSSTFFSRRSSQDSLNTRSLNSENSYVSPRILTASQSRSNVPSASEVPDNRASEASQGFRFLRRRWGLSSLSHNHSSESDSENFNQESEGRNTGPWLSSSLRNRCTPLFSRRRREGRDESSRIPTSDTSSRSHIFRRESNEVVHLEAQNDPLGAAANRPQASAASSSATTGGSTSDSAQGGRNTGISGILPGSLFRFAVPPALGSNLTDNVMITVDIIPSGWNSADGKSDKTKSAPSRDPERLQKIKESLLLEDSEEEEGDLCRICQMAAASSSNLLIEPCKCTGSLQYVHQDCMKKWLQAKINSGSSLEAVTTCELCKEKLELNLEDFDIHELHRAHANEQAEYEFISSGLYLVVLLHLCEQSFSDMMGNTNEPSTRVRFINLARTLQAHMEDLETSEDDSEEDGDHNRTFDIA
modifications: myristoylation signal at the N-terminus (membrane localisation)
notes: also called axotrophin; membrane-associated RING-CH protein VII; not shown: myristoylation signal of the pmyr library vector

Assays:
[1] = target: T1, Sos-2xSpc-Vif fusion protein (negative control target protein, expressed from pADH-Sos-2xSpc-vif); assay: Sos recruitment system in cdc25-2 yeast, growth at 37 C on galactose (FIG. 2 row B: GBP2+Sos-Vif)
T1 construct: Heterologous control bait in cdc25-2 yeast; also called Sos-Vif; SOS-Vif

[2] = target: T1, Sos-2xSpc-Vif fusion protein (negative …); assay: Sos recruitment system in cdc25-2 yeast, growth at 37 C on galactose (FIG. 2 row D: MARCH7+SOS-Vif)

Row | Binder | binding result [1] | binding result [2]
1 | B1 | no binding | 
2 | B2 |  | no binding
